Test [1] addresses T1, HLA-A*68:02 expressed on the cell surface (HeLaM cells, or HeLaM-HLA-ABC^KO cells reconstituted with … (human)).
T1 construct: whole, on cells; Carries the cells' own, unnamed peptides before exchange; also called HLA-A*A68:02
In words: flow cytometry of TAPBPR on HeLaM cells without surface GFP.

The target of test [2] is T1, HLA-A*68:02 expressed on the cell …. Nature of the test: flow cytometry of fluorescent peptide on IFN-γ treated HeLaM cell lines, 15 min at 37° C.
Protocol: (§1) Target cell lines were seeded at 25,000-30,000 cells/well in 12-well plates and stimulated with IFN-γ. Following the stimulation period, the cells were washed 3 times with 1×PBS and incubated with 300 μL pre-warmed opti-MEM (Thermo Fisher Scientific, UK). […] After 15 min, the desired TAMRA-labelled peptide was added to the cells and incubated at 37° C. (15 min for HLA-A*68:02 or 60 min for HLA-A*02:01). […] Following the peptide treatment, the cells were washed three times in 1×PBS and harvested. The level of bound peptide/cell was determined by flow cytometry, using the YelFL1 channel (Cytek).
For test [3] the target is unchanged. Nature of the test: cell-based peptide exchange: no dissociation of fluorescent peptide from HLA-A*68:02 on HeLa^KOTAPBPR^WT cells.
Protocol: (§2) Cells were incubated with 10 nM fluorescent peptide for 15 min at 37° C., washed, then subsequently incubated with increasing concentrations of unlabeled competitor peptide for 15 min at 37° C.
(§3) First, cells were incubated with 10 nM fluorescently-labelled peptide for 15 min at 37° C. to allow surface MHC class I molecules to bind to labelled peptides. The, after extensive washing to remove any unbound fluorescent peptide, the ability of the cells to exchange the labelled peptide was assessed by incubating the cell with various unlabeled competitor peptides for 15 min at 37° C.
Test [4] addresses T2, UDP-glucose:glycoprotein glucosyltransferase 1 (UGT1) (UniProt Q9NYU2 43-1555).
T2 construct: Detected by Western blot in TAPBPR immunoprecipitates
Nature of the test: immunoprecipitation of the intracellular TAPBPR pool, Western blot for UGT1. (In general: A western blot detects proteins with antibodies after separation by electrophoresis.)
Protocol: Nuclei and cell debris were pelleted by centrifugation at 13,000×g for 15 min and supernatants were collected. Immunoprecipitation was performed with Pete4 antibody coupled to protein A sepharose (GE Healthcare) for 2 h at 4° C. with rotation. Following immunoprecipitation, beads were washed thoroughly in 0.1% detergent-TBS to remove unbound protein. […] In order to analyse the samples by western blotting, proteins were transferred onto an Immobilon transfer membrane (Merck Millipore). Membranes were blocked using 5% (w/v) dried milk and 0.1% (v/v) Tween 20 in PBS for 30 min and subsequently incubated with the indicated primary antibody for 1-16 h. After washing, membranes were incubated with species-specific HRP-conjugated secondary antibodies, washed and detected by enhanced chemiluminescence using Western Lightning (Perkin Elmer, UK) and Super RX film (Fujifilm, UK). Films were scanned on a CanoScan8800F using MX Navigator Software (Canon, UK).

Test [5] concerns the target T1, HLA-A*68:02 expressed on the cell …. In words: flow cytometry of fluorescent peptide on transduced HeLaM-TAPBPR^KO cells.
Test [6] shares this target. Nature of the test: flow cytometry with PeTe-4 on HeLaM, HeLaM-HLA-ABC^KO and HLA-A*68:02 reconstituted cells, 100 nM protein, 15 min at 37° C. (In general: Flow cytometry measures light scatter and fluorescence of single cells or particles in a stream.)
Description: Line graphs show MFI−/+s.e.m from three independent experiments. […] (i) Bar graphs showing the MFI of fluorescent peptide binding to HeLaM HLA-ABC^KO+A2−/+s.e.m from two independent experiments with duplicates. ***P≤0.001, ****P≤0.0001, n/s not significant, using unpaired two-tailed t-test.
Test [7] has the same target. Nature of the test: flow cytometry, time course with 10 nM fluorescent peptide (FIG. 1e).
Protocol: as §1
For test [8] the target is unchanged. Nature of the test: flow cytometry, dose response of fluorescent peptide on HeLaM cell lines (FIG. 1d).
Protocol: as §1
Test [9] shares this target. In words: cell-based peptide exchange on HeLa^KOTAPBPR^WT cells, displacement of fluorescent peptide, flow cytometry.
Protocol: as §2, §3

Ends that are not written are not given here. * marks the point of attachment. TAMRA = 5-carboxytetramethylrhodamine, CN(C)c1ccc2c(-c3ccc(C(=O)*)cc3C(=O)[O-])c3ccc(N(C)C)cc3[o+]c2c1

T2 sequence (Q9NYU2 43-1555 limits assumed): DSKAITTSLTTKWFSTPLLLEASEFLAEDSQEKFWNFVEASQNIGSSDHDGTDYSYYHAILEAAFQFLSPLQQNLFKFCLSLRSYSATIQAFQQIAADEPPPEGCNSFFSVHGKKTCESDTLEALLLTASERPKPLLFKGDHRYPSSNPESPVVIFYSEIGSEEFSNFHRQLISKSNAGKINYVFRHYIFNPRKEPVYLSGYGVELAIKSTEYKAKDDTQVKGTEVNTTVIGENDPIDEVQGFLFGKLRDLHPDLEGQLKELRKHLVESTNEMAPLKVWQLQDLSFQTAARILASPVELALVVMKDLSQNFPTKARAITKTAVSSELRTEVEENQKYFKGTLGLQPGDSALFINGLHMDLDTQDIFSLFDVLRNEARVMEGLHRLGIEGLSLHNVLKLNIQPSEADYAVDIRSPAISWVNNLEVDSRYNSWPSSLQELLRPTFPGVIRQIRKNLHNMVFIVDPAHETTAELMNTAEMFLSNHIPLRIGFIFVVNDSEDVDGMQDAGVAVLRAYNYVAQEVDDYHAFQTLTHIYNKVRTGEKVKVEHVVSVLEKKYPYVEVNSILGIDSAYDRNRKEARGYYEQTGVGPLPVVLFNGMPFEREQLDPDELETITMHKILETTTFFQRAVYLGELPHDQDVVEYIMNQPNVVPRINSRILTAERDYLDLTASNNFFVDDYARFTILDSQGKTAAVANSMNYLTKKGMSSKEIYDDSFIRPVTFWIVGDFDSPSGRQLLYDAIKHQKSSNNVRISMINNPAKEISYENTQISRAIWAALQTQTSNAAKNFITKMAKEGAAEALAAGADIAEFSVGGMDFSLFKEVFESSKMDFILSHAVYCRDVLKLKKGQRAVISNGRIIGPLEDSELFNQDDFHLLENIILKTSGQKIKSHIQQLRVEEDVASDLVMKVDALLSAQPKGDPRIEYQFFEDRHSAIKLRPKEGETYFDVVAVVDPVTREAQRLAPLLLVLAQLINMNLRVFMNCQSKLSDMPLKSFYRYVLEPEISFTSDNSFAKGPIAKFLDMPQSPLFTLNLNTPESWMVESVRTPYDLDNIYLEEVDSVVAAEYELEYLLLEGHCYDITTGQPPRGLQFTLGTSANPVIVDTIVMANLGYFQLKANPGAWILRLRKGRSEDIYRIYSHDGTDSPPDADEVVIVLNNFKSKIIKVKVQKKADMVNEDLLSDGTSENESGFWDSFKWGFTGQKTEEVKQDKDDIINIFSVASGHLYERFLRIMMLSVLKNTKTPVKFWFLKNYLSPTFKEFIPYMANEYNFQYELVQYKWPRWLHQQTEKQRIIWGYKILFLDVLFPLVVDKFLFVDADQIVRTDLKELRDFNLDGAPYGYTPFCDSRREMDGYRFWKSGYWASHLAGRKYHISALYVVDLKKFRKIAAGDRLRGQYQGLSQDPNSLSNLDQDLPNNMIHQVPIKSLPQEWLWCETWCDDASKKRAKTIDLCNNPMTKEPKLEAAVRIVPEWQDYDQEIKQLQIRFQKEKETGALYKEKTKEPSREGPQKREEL

B1: TAPBPR-GFPNB fusion protein (soluble TAPBPR fused to a nanobody specific for GFP, long linker) (other)
chain: KPHPAEGQWRAVDVVLDCFLVKDGAHRGALASSEDRARASLVLKQVPVLDDGSLEDFTDFQGGTLAQDDPPIIFEASVDLVQIPQAEALLHADCSGKEVTCEISRYFLQMTETTVKTAAWFMANVQVSGGGPSISLVMKTPRVAKNEVLWHPTLNLPLSPQGTVRTAVEFQVMTQTQSLSFLLGSSASLDCGFSMAPGLDLISVEWRLQHKGRGQLVYSWTAGQGQAVRKGATLEPAQLGMARDASLTLPGLTIQDEGTYICQITTSLYRAQQIIQLNIQASPKVRLSLANEALLPTLICDIAGYYPLDVVVTWTREELGGSPAQVSGASFSSLRQSVAGTYSISSSLTAEPGSAGATYTCQVTHISLEEPLGASTQVVPPERRHVGGGGSGGGGSGGGGSTSQVQLVESGGALVQPGGSLRLSCAASGFPVNRYSMRWYRQAPGKEREWVAGMSSAGDRSSYEDSVKGRFTISRDDARNTVYLQMNSLKPEDTAVYYCNVNVGFEYWGQGTQVTVSSK
notes: 21 aa leader left out; also called sTAPBPR-linker-GFPNB; sTAPBPR-GFP sdAb
With B1, the binding result in [1] is “no binding (tested: 100 nM)”.
With EGVSK(TAMRA)QSNG (also called ETVΔ2/9) [EGVSK*QSNG (fluorescent non-binding variant with the anchor residues mutated)], the binding result in [2] was “no binding (tested: 10 nM)”.
Turning to EGVSEQSNG (also called ETVΔ2/9), in test [3], the binding result is given as “no binding”.

B2: full-length TAPBPR^WT over-expressed in HeLaM-TAPBPR^KO cells (other)
chain: KPHPAEGQWRAVDVVLDCFLVKDGAHRGALASSEDRARASLVLKQVPVLDDGSLEDFTDFQGGTLAQDDPPIIFEASVDLVQIPQAEALLHADCSGKEVTCEISRYFLQMTETTVKTAAWFMANVQVSGGGPSISLVMKTPRVAKNEVLWHPTLNLPLSPQGTVRTAVEFQVMTQTQSLSFLLGSSASLDCGFSMAPGLDLISVEWRLQHKGRGQLVYSWTAGQGQAVRKGATLEPAQLGMARDASLTLPGLTIQDEGTYICQITTSLYRAQQIIQLNIQASPKVRLSLANEALLPTLICDIAGYYPLDVVVTWTREELGGSPAQVSGASFSSLRQSVAGTYSISSSLTAEPGSAGATYTCQVTHISLEEPLGASTQVVPPERRTALGVIFASSLFLLALMFLGLQRRQAPTGLGLLQAERWETTSCADTQSSHLHEDRTARVSQPS
notes: V41_G151_V169 polymorphisms as used in the studies; also called surface TAPBPR; HeLa^KOTAPBPR^WT
For B2, the binding result in [4] was “binds”.
In the case of YVVPFVAK(TAMRA)V [YVVPFVAK*V (fluorescent variant of YVVPFVAKV)], the “fold less exogenous peptide binding on tapasin^PM cells than on TAPBPR^PM cells” value in [5] was about 10 times.

B3: soluble TAPBPR^WT (secreted luminal domain of human TAPBPR, C-terminally His-tagged) (other)
chain: KPHPAEGQWRAVDVVLDCFLVKDGAHRGALASSEDRARASLVLKQVPVLDDGSLEDFTDFQGGTLAQDDPPIIFEASVDLVQIPQAEALLHADCSGKEVTCEISRYFLQMTETTVKTAAWFMANVQVSGGGPSISLVMKTPRVAKNEVLWHPTLNLPLSPQGTVRTAVEFQVMTQTQSLSFLLGSSASLDCGFSMAPGLDLISVEWRLQHKGRGQLVYSWTAGQGQAVRKGATLEPAQLGMARDASLTLPGLTIQDEGTYICQITTSLYRAQQIIQLNIQASPKVRLSLANEALLPTLICDIAGYYPLDVVVTWTREELGGSPAQVSGASFSSLRQSVAGTYSISSSLTAEPGSAGATYTCQVTHISLEEPLGASTQVVPPERR
notes: Made in 293T cells with the PiggyBac system and purified on Ni Sepharose; also called sol WT; exogenous TAPBPR^WT; not shown: C-terminal His tag
Consider B3, for which the binding result in test [6] is recorded as “binds”.
With ETVSK(TAMRA)QSNV [ETVSK*QSNV (fluorescent variant of the neoantigen …)], in test [5], the “fold less exogenous peptide binding on tapasin^PM cells than on TAPBPR^PM cells” value is about 10 times. Besides, the “fold increase in fluorescent peptide bound to HeLaKO-TAPBPR^WT against the HeLaM and HeLaM^KO controls after 60 min” value in test [7] came to 21 fold. The “fold less efficient peptide binding to cells lacking surface TAPBPR than TAPBPR-promoted binding” value in test [8] is about 120 times.
Turning to ETVSEQSNV [ETVSEQSNV (unlabeled HLA-A*68:02-binding peptide)], the binding result in test [9] is on record as “binds”.
Take YVVPFVAKV [YVVPFVAKV (unlabeled peptide)]: the binding result in test [9] was “binds”.
